Numbering of substitutions follows the chain as printed. Numbers in names are those of the source. Where “and” joins values, the source holds several entries; their conditions need not be identical. Equal entries are not always repeated. Where a SMILES comes first, the peptide text is derived from it. Where no end group is shown, it is not given here. fluorescein = fluorescein-β-alanine label at the N-terminus; βAla = NCCC(=O)O
Assays:
wild-type DegS [1] = target: T1, wild-type DegS (Escherichia coli, UniProt P0AEE3); assay: biochemical; design: species or system E. coli
H198P DegS = H198P DegS (Escherichia coli, UniProt P0AEE3, H198P); assay: biochemical; design: species or system E. coli
H198P/K243D DegS = H198P/K243D DegS (Escherichia coli, UniProt P0AEE3, H198P/K243D); assay type: biochemical, E. coli; conditions: saturating OMP peptide, 23 ± 1 °C; average of two or more determinations
wild-type DegS [2] = target: T1, wild-type DegS; assay type: biochemical, E. coli; conditions: OMP peptide present, 23 ± 1 °C; average of two or more determinations
[3] = target: fluorescein-β-alanine-… OMP peptide; assay: fluorescence polarisation
crystal structure = target: the molecule itself; assay: crystal structure
RseA [4] = assay: Steady-state RseA cleavage; assay type: biochemical, E. coli; conditions: for Km: KM of RseA; for Km / Vmax: OMP peptide: None, 23 ± 1 °C, average of two or more determinations
RseA [5] = assay: Cleavage of sub-KM RseA by DegS variants without OMP peptide; assay type: biochemical, E. coli; conditions: no OMP peptide
[6] = target: T2, H198P/D320A E. coli DegS (residues 27-355) (E. coli, UniProt P0AEE3 27-355, H198P | D320A); assay: fluorescence polarisation
T2 sequence (looked up): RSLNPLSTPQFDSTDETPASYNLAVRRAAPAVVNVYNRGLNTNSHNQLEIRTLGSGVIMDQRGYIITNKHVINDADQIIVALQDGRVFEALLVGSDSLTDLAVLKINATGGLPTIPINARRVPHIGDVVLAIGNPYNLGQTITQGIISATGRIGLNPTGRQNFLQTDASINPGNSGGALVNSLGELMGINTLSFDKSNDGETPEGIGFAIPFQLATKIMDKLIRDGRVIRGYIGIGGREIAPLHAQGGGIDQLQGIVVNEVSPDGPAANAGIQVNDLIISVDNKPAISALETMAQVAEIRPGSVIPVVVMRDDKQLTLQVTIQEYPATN

[7] = target: T3, K243D E. coli DegS (residues 27-355) (E. coli, UniProt P0AEE3 27-355, K243D); assay: fluorescence polarisation
T3 sequence (looked up): T2 sequence (looked up) with P172H, K217D, A294D

[8] = target: T4, H198P E. coli DegS (residues 27-355) (E. coli, UniProt P0AEE3 27-355, H198P); assay: fluorescence polarisation
T4 sequence (looked up): T2 sequence (looked up) with A294D

[9] = target: T5, D320A E. coli DegS (residues 27-355) (E. coli, UniProt P0AEE3 27-355, D320A); assay: fluorescence polarisation
T5 sequence (looked up): T2 sequence (looked up) with P172H

[10] = target: T6, wild-type E. coli DegS (residues 27-355) (E. coli, UniProt P0AEE3 27-355); assay: fluorescence polarisation
T6 sequence (looked up): T2 sequence (looked up) with P172H, A294D

[11] = target: T7, H198P/K243D E. coli DegS (residues 27-355) (E. coli, UniProt P0AEE3 27-355, H198P | K243D); assay: fluorescence polarisation
T7 sequence (looked up): T2 sequence (looked up) with K217D, A294D

[12] = target: T8, H198P E. coli DegS (residues 27-355) (E. coli) (UniProt P0AEE3)
T8 sequence: T2 sequence (looked up) with A294D

[13] = target: T9, H198P/D320A E. coli DegS (residues 27-355) (E. coli) (UniProt P0AEE3)
T9 sequence: T2 sequence (looked up)

[14] = target: T10, H198P/K243D E. coli DegS (residues 27-355) (E. coli) (UniProt P0AEE3)
T10 sequence: T2 sequence (looked up) with K217D, A294D

T1 sequence (P0AEE3 27-355): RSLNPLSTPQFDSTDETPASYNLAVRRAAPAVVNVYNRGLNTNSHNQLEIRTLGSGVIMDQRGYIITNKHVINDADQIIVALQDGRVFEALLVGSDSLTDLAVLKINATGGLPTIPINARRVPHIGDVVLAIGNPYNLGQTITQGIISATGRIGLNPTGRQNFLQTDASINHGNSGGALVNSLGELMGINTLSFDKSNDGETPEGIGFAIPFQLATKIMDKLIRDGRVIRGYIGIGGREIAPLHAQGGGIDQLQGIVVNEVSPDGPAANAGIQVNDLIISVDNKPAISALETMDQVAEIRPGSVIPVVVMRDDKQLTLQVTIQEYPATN
Sequence of H198P DegS (P0AEE3 27-355 H198P limits assumed): as the sequence (P0AEE3 27-355) above, with H172P counted along it
Sequence of H198P/K243D DegS (P0AEE3 27-355 H198P/K243D limits assumed): as the sequence (P0AEE3 27-355) above, with H172P, K217D counted along it

## NC(=O)CC[C@H](NC(=O)[C@@H](N)Cc1ccc(O)cc1)C(=O)N[C@@H](Cc1ccccc1)C(=O)O [YQF] (H-Tyr-Gln-Phe-OH)
wild-type DegS [1]
  EC50: 260 ± 10 µM
H198P DegS
  EC50: 29 ± 5 µM

## DNRDGNVYQF
wild-type DegS [1]
  EC50: 50 ± 5 µM
H198P DegS
  EC50: 4.4 ± 0.6 µM

## DNRDGNVYYF
H198P/K243D DegS
  Vmax: 1.8 ± 0.2 s^-1 enz^-1
wild-type DegS [2]
  Vmax: 1.1 ± 0.2 s^-1 enz^-1

## PDZ domain of E. coli DegS (domain or fragment)
[3]
  Kd: 0.6 µM

B1: DFP-modified H198P/D320A E. coli DegS (residues 27-355) (enzyme, UniProt P0AEE3 27-355, looked up)
chain: T2 sequence (looked up)
modifications: Ser201 modified by diisopropylfluorophosphate (DFP); seen as monoisopropylphosphorylserine (Mis201) in the crystal structures
Crystal structure
  stoichiometry N: 3

B2: H198P/D320A: DegS double mutant (protein)
chain: T2 sequence (looked up)
modifications: left off: His6, N-terminal, state not stated
RseA [4]
  Km: 110 ± 10 µM
  Vmax: 1.6 ± 0.2 s^-1 enz^-1

B3: H198P: DegS variant with His^198 substituted by proline (protein)
chain: T2 sequence (looked up) with A294D
modifications: left off: His6, N-terminal, state not stated
RseA [4]
  Km: 560 ± 40 µM
  Vmax: 1.4 ± 0.3 s^-1 enz^-1
RseA [4]; high concentrations of RseA, no OMP peptide
  activity with high RseA alone relative to best OMP-peptide activation: about 60%
RseA [5]
  RseA cleavage rate relative to wild-type DegS: 150 fold

B4: H198P/K243D: DegS double mutant (protein)
chain: T2 sequence (looked up) with K217D, A294D
modifications: left off: His6, N-terminal, state not stated
RseA [4]
  Km: 70 ± 5 µM
  Vmax: 1.2 ± 0.1 s^-1 enz^-1

## {fluorescein-βAla}-KKDNRDGNYYF [fluorescein-β-alanine-KKDNRDGNYYF OMP peptide]
[6]
  Kd: 0.45 µM
[7]
  Kd: 3.1 µM
[8]
  Kd: 1.9 µM
[9]
  Kd: 1.1 µM
[10]
  Kd: 4.6 µM
[11]
  Kd: 0.68 µM

B5: 35S-labeled variant of the periplasmic domain of E. coli RseA (residues 121-216) (domain or fragment)
chain: YNGQSETSQQPETPVFNTLPMMGKASPVSLGVPSEATANNGQQQQVQEQRRRINAMLQDYELQRRLHSEQLQFEQAQTQQAAVQVPGIQTLGTQSQ
modifications: 35S-labeled
[12]
  KM of RseA cleavage, with saturating YQF peptide: 69 µM
  KM of RseA cleavage, with saturating YYF peptide: 64 µM
  KM of RseA cleavage, with saturating … peptide: 94 µM and 130 µM
  KM of RseA cleavage, without OMP peptide: 560 µM
[13]
  KM of RseA cleavage, without OMP peptide: 110 µM
[14]
  KM of RseA cleavage, without OMP peptide: 70 µM
